Article PMC11760809

Columns and labels:
[1] = biological target: CXCR4-Rluc3 (human) (UniProt P61073)
[2] = biological target: ACKR3-Rluc3 (human) (UniProt P25106)
[3] = biological target: SNAP-ACKR3 (human) (UniProt P25106)
[4] = biological target: SNAP-ACKR3 (human) (UniProt P25106); remark: listed apart in the source
[5] = biological target: ACKR3-Rluc3 (human) (UniProt P25106); remark: listed apart in the source

Sequence of UniProt P61073 (P61073 whole entry): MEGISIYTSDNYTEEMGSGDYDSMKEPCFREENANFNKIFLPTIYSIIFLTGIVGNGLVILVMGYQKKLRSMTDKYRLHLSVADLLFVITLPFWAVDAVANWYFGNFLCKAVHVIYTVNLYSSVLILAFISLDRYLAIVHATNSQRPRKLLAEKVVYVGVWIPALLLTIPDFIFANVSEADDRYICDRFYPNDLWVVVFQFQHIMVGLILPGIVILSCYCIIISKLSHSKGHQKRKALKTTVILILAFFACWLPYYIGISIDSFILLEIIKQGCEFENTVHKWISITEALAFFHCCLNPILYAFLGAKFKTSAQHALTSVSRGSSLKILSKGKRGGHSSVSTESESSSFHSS

reduction of the efficacy (Emax) of CXCL12-induced β-arrestin recruitment to CXCR4 by RAMP3 (BRET) [1]: 18.5%
decrease of the efficacy of CXCL11-induced β-arrestin recruitment to ACKR3 with HA-RAMP3 (BRET) [2]: 47%
decrease of the efficacy of TC14012-induced β-arrestin recruitment to ACKR3 with HA-RAMP3 (BRET) [2]: 39%
decrease of the efficacy of VUF11207-induced β-arrestin recruitment to ACKR3 with HA-RAMP3 (BRET) [2]: 30%
ACKR3 remaining at the surface after CXCL12-induced internalization when HA-RAMP3 was present (∼53% without it; SNAP surface labelling) [3]: 65%
attenuation of the purely ligand-induced (CXCL12) internalization of ACKR3 by RAMP3 (DERET) [4]: 50%
reduction of total ACKR3 internalization in response to CXCL12 (100 nM) on co-expression of HA-RAMP3, compared to ACKR3 alone (DERET, AUC 90 min) [4]: 25%
decrease of the CXCL12-induced Emax of β-arrestin recruitment to ACKR3 on co-expression with RAMP3 (BRET) [5]: 40%
B1: 3xHA-RAMP3 (natural protein)
chain: RAGGCNETGMLERLPLCGKAFADMMGKVDVWKWCNLSEFIVYYESFTNCTEMEANVVGCYWPNPLAQGFITGIHRQFFSNCTVDRVHLEDPPDEVLIPLIVIPVVLTVAMAGLVVWRSKRTDTLL
